Test results reported in publication PMC10349855, “Structural basis for specific RNA recognition by the alternative splicing factor RBM5”.

Legend:
RBM5 RRM1-ZnF1 R198E [1] = biological target: T1, RBM5 RRM1-ZnF1 R198E (Homo sapiens, UniProt P52756 94-210, I107T;R198E); test: ITC; Zn; 20 mM MES pH 6.5, 100 mM NaCl, 2 mM 2-mercaptoethanol, 25 C; protein 10-30 uM in the cell; one-site fit; details: tags: none; N-terminal Met-Gly from the NcoI site (left out)
T1 sequence: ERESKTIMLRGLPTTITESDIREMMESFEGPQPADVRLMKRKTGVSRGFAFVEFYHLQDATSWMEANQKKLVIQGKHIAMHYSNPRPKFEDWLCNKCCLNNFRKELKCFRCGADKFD

RBM5 RRM1-ZnF1 F202A [2] = biological target: T2, RBM5 RRM1-ZnF1 F202A (Homo sapiens, UniProt P52756 94-210, I107T;F202A); test: as above; details: tags: none; N-terminal Met-Gly from the NcoI site (left out)
T2 sequence: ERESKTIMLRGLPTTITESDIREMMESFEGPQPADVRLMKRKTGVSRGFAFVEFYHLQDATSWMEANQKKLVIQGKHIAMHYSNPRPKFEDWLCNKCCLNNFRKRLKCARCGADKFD

RBM5 RRM1-ZnF1S-RRM2 = biological target: T3, RBM5 RRM1-ZnF1S-RRM2 (human, UniProt P52756 94-315, C191G); test: as above; details: tags: His-thioredoxin, TEV-cleaved (scar left out)
T3 sequence: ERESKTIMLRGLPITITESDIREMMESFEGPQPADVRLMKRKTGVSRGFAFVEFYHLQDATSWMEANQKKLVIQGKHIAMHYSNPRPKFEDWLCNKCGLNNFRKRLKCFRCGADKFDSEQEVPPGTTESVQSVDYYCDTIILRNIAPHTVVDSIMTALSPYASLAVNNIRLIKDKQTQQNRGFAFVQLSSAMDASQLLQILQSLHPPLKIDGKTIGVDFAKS

RBM5 RRM1-ZnF1 F142/144A = biological target: T4, RBM5 RRM1-ZnF1 F142/144A (Homo sapiens, UniProt P52756 94-210, I107T;F142A;F144A); test: as above; details: tags: none; N-terminal Met-Gly from the NcoI site (left out)
T4 sequence: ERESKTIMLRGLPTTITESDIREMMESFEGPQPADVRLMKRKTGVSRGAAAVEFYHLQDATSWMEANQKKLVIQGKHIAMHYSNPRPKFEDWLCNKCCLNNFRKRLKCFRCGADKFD

RBM5 RRM1-ZnF1 wt [3] = biological target: T5, RBM5 RRM1-ZnF1 wt (Homo sapiens, UniProt P52756 94-210, I107T); test: as above; details: tags: none; N-terminal Met-Gly from the NcoI site (left out)
T5 sequence: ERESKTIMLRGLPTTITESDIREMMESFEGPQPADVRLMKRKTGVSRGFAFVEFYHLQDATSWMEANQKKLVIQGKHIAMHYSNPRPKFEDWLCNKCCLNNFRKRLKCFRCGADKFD

RBM5 RRM1-ZnF1S [4] = biological target: T6, RBM5 RRM1-ZnF1S (Homo sapiens, UniProt P52756 94-210, I107T;C191G); test: as above; details: tags: none; N-terminal Met-Gly from the NcoI site (left out)
T6 sequence: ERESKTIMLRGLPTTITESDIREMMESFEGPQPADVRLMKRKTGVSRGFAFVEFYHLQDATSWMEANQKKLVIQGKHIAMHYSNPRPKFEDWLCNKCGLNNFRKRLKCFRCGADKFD

RBM5 RRM1 = biological target: T7, RBM5 RRM1 (human, UniProt P52756 94-184); test: ITC; 20 mM MES pH 6.5, 100 mM NaCl, 2 mM 2-mercaptoethanol, 25 C; protein 10-30 uM in the cell; one-site fit; details: tags: His-thioredoxin, TEV-cleaved (scar left out)
T7 sequence: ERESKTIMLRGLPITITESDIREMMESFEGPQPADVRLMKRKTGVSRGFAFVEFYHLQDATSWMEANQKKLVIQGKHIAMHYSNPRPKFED

RBM5 RRM2 = biological target: T8, RBM5 RRM2 (human, UniProt P52756 231-315); test: ITC; average of two; ITC: 20 mM MES pH 6.5, 100 mM NaCl, 2 mM BME, 25 C; NMR: 20 mM MES pH 6.5, 100 mM (single RRMs) or 400 mM (multidomain) NaCl, 1 mM DTT, 298 K; details: protein: recombinant; tags: His-Trx tag, TEV cleaved
T8 sequence: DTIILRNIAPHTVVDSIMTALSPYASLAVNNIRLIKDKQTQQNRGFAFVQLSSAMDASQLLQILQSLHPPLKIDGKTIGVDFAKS

RBM5 RRM1-ZnF1 wt [5] = biological target: T9, RBM5 RRM1-ZnF1 wt (human, UniProt P52756 94-210); test: ITC; average of two; text 153 nM; ITC: 20 mM MES pH 6.5, 100 mM NaCl, 2 mM BME, 25 C; NMR: 20 mM MES pH 6.5, 100 mM (single RRMs) or 400 mM (multidomain) NaCl, 1 mM DTT, 298 K; details: protein: recombinant
T9 sequence: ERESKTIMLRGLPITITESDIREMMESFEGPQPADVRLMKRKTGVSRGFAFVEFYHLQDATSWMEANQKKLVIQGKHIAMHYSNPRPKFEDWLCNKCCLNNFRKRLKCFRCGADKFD

RBM5 RRM1-ZnF1S [6] = biological target: T10, RBM5 RRM1-ZnF1S (human, UniProt P52756 94-210, C191G); test: ITC; ITC: 20 mM MES pH 6.5, 100 mM NaCl, 2 mM BME, 25 C; NMR: 20 mM MES pH 6.5, 100 mM (single RRMs) or 400 mM (multidomain) NaCl, 1 mM DTT, 298 K; details: protein: recombinant
T10 sequence: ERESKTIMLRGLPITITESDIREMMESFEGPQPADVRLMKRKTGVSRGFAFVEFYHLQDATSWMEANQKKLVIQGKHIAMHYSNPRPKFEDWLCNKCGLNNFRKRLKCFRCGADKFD

RBM5 RRM1-ZnF1 F202A [7] = biological target: T11, RBM5 RRM1-ZnF1 F202A (human, UniProt P52756 94-210, F202A); test: as above; details: protein: recombinant
T11 sequence: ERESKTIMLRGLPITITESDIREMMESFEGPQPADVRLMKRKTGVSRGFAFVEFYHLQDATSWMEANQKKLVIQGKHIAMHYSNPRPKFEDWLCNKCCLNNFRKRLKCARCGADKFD

RBM5 RRM1-ZnF1 R198E [8] = biological target: T12, RBM5 RRM1-ZnF1 R198E (human, UniProt P52756 94-210, R198E); test: as above; details: protein: recombinant
T12 sequence: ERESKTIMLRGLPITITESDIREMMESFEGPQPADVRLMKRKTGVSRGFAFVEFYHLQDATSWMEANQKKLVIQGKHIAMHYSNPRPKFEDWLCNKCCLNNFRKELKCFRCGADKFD

[9] = biological target: T13, RBM5 RRM1-ZnF1 F142A/F144A (human, UniProt P52756 94-210, F142A;F144A); test: as above; details: protein: recombinant
T13 sequence: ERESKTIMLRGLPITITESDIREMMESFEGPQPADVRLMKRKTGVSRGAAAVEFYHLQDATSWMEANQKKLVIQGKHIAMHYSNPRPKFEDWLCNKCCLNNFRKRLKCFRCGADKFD

RBM5 RRM1-ZnF1S [10] = biological target: T10, RBM5 RRM1-ZnF1S; test: ITC; N about 0.6; Discussion prints 6 uM but also 2.4-fold weaker than 263 nM; ITC: 20 mM MES pH 6.5, 100 mM NaCl, 2 mM BME, 25 C; NMR: 20 mM MES pH 6.5, 100 mM (single RRMs) or 400 mM (multidomain) NaCl, 1 mM DTT, 298 K; details: protein: recombinant
RBM5 RRM1 F142A/F144A = biological target: T14, RBM5 RRM1 F142A/F144A (human, UniProt P52756 94-184, F142A;F144A); test: NMR; 20 mM MES pH 6.5, 100 mM NaCl, 1 mM DTT, 25 C; protein 0.1-0.2 mM; details: tags: His-thioredoxin, TEV-cleaved (scar left out)
T14 sequence: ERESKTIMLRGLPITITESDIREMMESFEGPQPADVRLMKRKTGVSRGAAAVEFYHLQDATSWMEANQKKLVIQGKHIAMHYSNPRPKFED

RBM5 RRM1-ZnF1 wt [11] = biological target: T9, RBM5 RRM1-ZnF1 wt; test: ITC; ITC: 20 mM MES pH 6.5, 100 mM NaCl, 2 mM BME, 25 C; NMR: 20 mM MES pH 6.5, 100 mM (single RRMs) or 400 mM (multidomain) NaCl, 1 mM DTT, 298 K; details: protein: recombinant
RBM5 RRM1-ZnF1S [12] = biological target: T10, RBM5 RRM1-ZnF1S; test: X-ray crystallography; Zn2+; 3.5 A; ITC: 20 mM MES pH 6.5, 100 mM NaCl, 2 mM BME, 25 C; NMR: 20 mM MES pH 6.5, 100 mM (single RRMs) or 400 mM (multidomain) NaCl, 1 mM DTT, 298 K; details: protein: recombinant

B1: GGCU_12 (ssRNA)
RNA: UGGCUCUUCUCU
For B1, which Kd (RBM5 RRM1-ZnF1 R198E [1]) is on record?
Its Kd is 2660 ± 380 nM.

What about the Kd (RBM5 RRM1-ZnF1 F202A [2]) of the same binder?
The Kd was 379 ± 41 nM.

What about the Kd (RBM5 RRM1-ZnF1S-RRM2) of the same binder?
The Kd was 133 ± 12 nM.

What about the Kd (RBM5 RRM1-ZnF1 F142/144A) of the same binder?
Its Kd is 448 ± 36 nM.

And the Kd (RBM5 RRM1-ZnF1 wt [3])?
Its Kd is 153 ± 69 nM.

And the Kd (RBM5 RRM1-ZnF1S [4])?
The Kd was 263 ± 27 nM.

What about the Kd (RBM5 RRM1) of the same binder?
The Kd was 1880 ± 950 nM.

What about the Kd (RBM5 RRM2) of the same binder?
The Kd was 173000 nM.

And the Kd (RBM5 RRM1-ZnF1 wt [5])?
The Kd was 153 nM.

And the Kd (RBM5 RRM1-ZnF1S [6])?
Its Kd is 263 ± 27 nM.

What about the Kd (RBM5 RRM1-ZnF1 F202A [7]) of the same binder?
Its Kd is 379 nM.

And the Kd (RBM5 RRM1-ZnF1 R198E [8])?
Its Kd is 2700 nM.

What about the Kd [9] of the same binder?
The Kd was 448 nM.

B2: eGGCU_12 (ssRNA)
RNA: ACUUGGCUCUUCUCU
What does the source list for B2?
Kd (RBM5 RRM1-ZnF1S [10]): 641 ± 125 nM; Kd (RBM5 RRM1-ZnF1S [4]): 641 ± 125 nM

B3: CU_9 (ssRNA)
RNA: UCUCUUCUC
With B3 as the binder, how does the Kd (RBM5 RRM1-ZnF1 wt [3]) read?
Its Kd is 5560 ± 2830 nM.

And the Kd (RBM5 RRM1)?
Its Kd is 19700 ± 6500 nM.

Does B3 bind (RBM5 RRM1 F142A/F144A)?
Result: no binding

What about the Kd (RBM5 RRM1-ZnF1 wt [11]) of the same binder?
Its Kd is 6000 nM.

B4: GGCU_10 (ssRNA)
RNA: UGGCUCUUCU
Does B4 bind (RBM5 RRM1-ZnF1S [12])?
Result: binds
